Assay results from PMC3817407.

T1: ECF02_915
T1 chain: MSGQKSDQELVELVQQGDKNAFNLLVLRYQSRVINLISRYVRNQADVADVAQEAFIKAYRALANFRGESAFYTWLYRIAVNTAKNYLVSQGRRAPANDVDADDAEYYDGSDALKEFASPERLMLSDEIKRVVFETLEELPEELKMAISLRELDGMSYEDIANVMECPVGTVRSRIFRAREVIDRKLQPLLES

T2: ECF12_807
T2 chain: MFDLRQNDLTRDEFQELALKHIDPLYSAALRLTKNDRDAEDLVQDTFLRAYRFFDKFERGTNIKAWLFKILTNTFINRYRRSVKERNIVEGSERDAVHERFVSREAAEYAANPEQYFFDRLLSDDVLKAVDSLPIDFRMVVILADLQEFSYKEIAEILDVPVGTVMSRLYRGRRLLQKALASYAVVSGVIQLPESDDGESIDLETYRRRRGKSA

T3: ECF11_3726
T3 chain: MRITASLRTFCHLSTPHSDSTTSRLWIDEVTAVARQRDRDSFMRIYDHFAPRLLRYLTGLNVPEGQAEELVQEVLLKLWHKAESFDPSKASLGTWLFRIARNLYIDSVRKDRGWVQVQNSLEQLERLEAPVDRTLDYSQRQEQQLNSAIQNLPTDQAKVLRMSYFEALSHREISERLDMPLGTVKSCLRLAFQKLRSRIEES

T4: ECF22_4450
T4 chain: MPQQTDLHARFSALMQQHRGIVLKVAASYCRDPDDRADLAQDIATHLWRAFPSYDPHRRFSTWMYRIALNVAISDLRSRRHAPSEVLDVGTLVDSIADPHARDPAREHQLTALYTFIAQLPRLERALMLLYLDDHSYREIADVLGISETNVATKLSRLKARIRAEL

T5: ECF35_3582
T5 chain: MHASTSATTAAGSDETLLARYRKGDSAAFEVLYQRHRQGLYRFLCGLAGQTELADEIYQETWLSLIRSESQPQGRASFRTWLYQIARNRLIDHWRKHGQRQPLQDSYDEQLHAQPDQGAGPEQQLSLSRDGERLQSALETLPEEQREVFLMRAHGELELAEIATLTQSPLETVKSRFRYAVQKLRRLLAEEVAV

T6: ECF04_1609
T6 chain: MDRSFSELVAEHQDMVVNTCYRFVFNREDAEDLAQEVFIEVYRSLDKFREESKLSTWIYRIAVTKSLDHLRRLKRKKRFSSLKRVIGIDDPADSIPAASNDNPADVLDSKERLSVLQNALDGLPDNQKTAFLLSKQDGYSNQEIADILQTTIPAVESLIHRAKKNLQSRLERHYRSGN


What was measured:
ECF02_915 = molecular target: T1, ECF02_915
ECF12_807 = molecular target: T2, ECF12_807
ECF11_3726 = molecular target: T3, ECF11_3726
ECF22_4450 = molecular target: T4, ECF22_4450
ECF35_3582 = molecular target: T5, ECF35_3582
ECF04_1609 = molecular target: T6, ECF04_1609

Binder | fold repression (ECF02_915) | fold repression (ECF12_807) | fold repression (ECF11_3726) | fold repression (ECF22_4450) | fold repression (ECF35_3582) | fold repression (ECF04_1609)
AS15_436 (protein) MAQSTEPKASPQEATAKGGDNTKGKSRKELQQQIDENLRRVYEEALVQEVPDRFAMLLDQLRQKGTGK | 1.55 | 5.3 | 7.87 | 4.63 | 1.1 | 5.41
AS03_1198 (protein) MDKDFDFDNIGKRTPYRTPDNFFEETQRKILERTVDEQRKKRRLKRIIPTVIAVAAVLAGILFTPSLRYMNTDTPSASNILAVDKNNVTTDPVDKWIKELSDEELEELVSFSENDIFLN | 2.43 | 1.43 | 1.38 | 1.2 | 1.05 | 1.54
AS22_4450 (protein) MELDDMKHAWQTLEQRLDQQAAQTGQLLGVVHEETVRSSLRPLWVAQTAQLLCALALAIVSARSWIPHTDQPVAVIGGVLLQAWCMALAISAMVQLQLLTQFNVAGPLLRTQHALARLRRWRTRVAPWLGVAFWVLWIAVADALWRALTGQTLPTDWLVLNLLVGVAGGIGTWLGFRRLQRAQHPWLERIDRAHAGTGVIRAERMLEEIARFQRD | 2.12 | 1.67 | 1.93 | 12.7 | 1.35 | 1.43
AS15_524 (protein) MNFGVEDMIEHVPMEDKRKGAAALDEARLRQQAIGVKLRQMFDEVVNEPVPDEFLAILRKAERPAGGE | 2.67 | 5.51 | 8.06 | 11.1 | 2.42 | 6.89
AS02_915 (protein) MEKTGQEWVSASVDGETDRQTLAELAADTDSHAKWQRYHLMGDAMRDELPQAMPLDLSARIAAALEDEPTILAPKVEREATQAPSRAVVVPFMRQLGQYGIAAAVALMAVVGVQNYQSTQDDAPLPVLNTRPLVGTATPVSLQTGPVANQNQGNANDQLLEQRRRINAYLQDHMLQQRLNTGAVVDDNSEVTPIPVNR | 29.2 | 9.79 | 7.44 | 4.13 | 2.65 | 3.74
AS11_987 (protein) MNKHPDNNLLEAYASGSIDAVSGLVVATHLETCSKCRAYVNQVEASQANTVSESPSEYSPEFDDMLNDIINAEPVNDNVVIQDTAFVNVAGKSFELPKTLVRFSDLVGSWRSYGGKVFSAQIDLGEDARVSLMYIGENVQIPQHTHRGLESTLVLHGGFSDEDGQYEEGDLMVRDASVKHSPFTQEGEDCLCLTVLTEPMIFTQGVARIFNLFGKGLYP | 3.1 | 4.25 | 6.99 | 5.44 | 1.71 | 2.66
AS16_3622 (protein) MMKTDELISLLATAEGPVDRHALARRLGLALLAGLLGALLLTVALYGVRSDLAEVARTPLFWAKVALPTSLALLGLWLTQRLARPGVRGGALWGLLGVPLLLVWLGAAISLFGAPPEARADLIFGRTWRTCALNITLLSTPVFIAVFWALRGLAPTRLRQAGAAGGLLAGSTATLVYCLHCPEMGVPFWGLWYLLGMLVPTLLGAVLGPRLLRW | 1.26 | 7.12 | 6.84 | 4.51 | 1.67 | 1.95
AS25_1643_cl43 (protein) MTTDSNFNDPCRRQFSRDLPQKMARHTNEATGAMDMVKRDRFELLSAYLGGEVTAAERRQVEDWPANDVAVQRLYSRLLKLRQGIRTMPIPTAQQSPETTAEQVFAKVNRRSRLAWKLGGAAVAACVIGAVTNWLPGRQTGIPQLAQQPQEQPTQAVTTPDALPMIALNNPVIEIPKAAVASPTKFIQPQPQLGEIPPDIN | 6.67 | 4.23 | 4.29 | 3.35 | 1.57 | 2.44
AS14_1324 (protein) MSGSRPEPEGHLAEQHLGDRLSALVDGELGHDARERVLAHVATCPKCKAEVDAQRRLKNVFAEAAPPAPSESFLARLQGLPGGGDSDGGGSPFSGLPGGFGASAASGVFGPRRDERFEFDYVPAGSHTPVLPSATSGRGFRIHEVGRHESDRSASRGLRFAFAAAGAVSLAAIALGGVTLGTPDTTTEARGSGSGSNVTPLRTPGSAAATGSESQRRRTAGPLLGQGQRALGDLPVASTTASAPLLPGMPAPAGGDARQQAVRALTTPVTAGAAAMSPLIRPLEAVPPLSLSSWSAAPEVRPPGLLAAPDPAPSPYPAASPAASSSPLR | 2.86 | 8.92 | 11 | 8.4 | 4.28 | 4.65
AS03_1244 (protein) MKQFDPDVNIRPKEDSIRHYSVPDDYFASFTDKLMAQIPAVKEENTVVVPSVALWPKLRPLLYLAASFLLMIGMFKAFSLFGVGSDTGRTTSTSAGLVALDHGDTRWSEDTDYRDFLHDNCAETVSDEWVLTDFSE | 2 | 3.08 | 3.57 | 2.49 | 1.37 | 2.42
AS20_992 (protein) MTPERFVHLADAYGADLQRWPSAERAAAQALLDCGDAQAVAALRQAHWLDSQLDRYQVPAPSPALAQRIIAAAQQPGAPFWSRYAGWLASLGWVGVGLTGVAAGMLAVALSLPLSTSAEALPSVFDQSDAEFVLSINAEEAEQ | 1.93 | 1.4 | 1.91 | 2.29 | 1.6 | 1.95
AS04_1609 (protein) MNRTTEQRNAEVMKTIGLLDQMPRVEVDHLFRVRLMQRIEAMEVKKTSWSALPGGAFNPRLAFMALLLMLNIASALMLFMHGTPQATGSSGAIAESLTEDYGGPALSYYDDQTTIDR | 2.99 | 5.09 | 13.9 | 9.53 | 3.24 | 7.83
AS22_1147 (protein) MELDDIAVAWRSLEQRLDQHAALAGQVLGDLRSHAARAHLRPLWLSQSAQLLCAIALSGLVAHSWLAFPEQAAAIVGGVLLQIWCVALAASAARQLWLLSQLDFARPLLQTQRALAQLRRWRTRVAPWLGVAFWVLWVAVADAAWRALTGRSLPYAWLLCNLLVGVLGGIGTWLGYRRLQRSGHPWLERLDTVHAGRSVARTETLLEQIARFQRE | 3.59 | 3.45 | 3.72 | 35.7 | 1.94 | 3.52
AS16_973 (protein) MKTDDLIALLAAGEGPVPRHAVGRRMAVAALGGLTAALLLTITLYGVRSDITEVAQTPLFWGKVAFPTSLALIGLWLTSRLARPGGKGAAGWKMLGLPLLLVWCGAAVSIAGAPVDARADLLFGRTWRTCALNIALLSVPAFVTVFWALKGLAPTRLRLAGAAGGLLAGSSATVAYCLHCPEMGVPFWGVWYVLGMLVPTVLGAWWGPRMLRW | 0.403 | 0.905 | 1.29 | 2.62 | 0.722 | 0.632
AS01_3473 (protein) MSNYDNAELLALWLEGKLTPKQRDEFEQRCIQDSQFAEQVDAAAMVKIGADDYSSSEVPQWNKAATFEPQQANNSGSWLSGVSLVTSALAIVLVLTGTQVTTSEGELRIRFGSGQSEQALVKLVDSKLDAFKQNQQDAFTLYAQTLQQQQSESASQLTNYLLSSSRKERREDFAELIKFVNQQRSDDQLFYARQLNQLQQDVYHDATGVALESIQQ | 2.34 | 3.57 | 5.65 | 1.97 | 1.49 | 1.67
